# Changes are numbered by the printed parent chain.
# T1: human BCMA with a His tag (ACROBiosystems, Catalog No.: BCA-H522y) (human)
# T1 construct: Bought His-tagged recombinant protein; also called huBCMA-His; Recombinant human BCMA
# T1 chain: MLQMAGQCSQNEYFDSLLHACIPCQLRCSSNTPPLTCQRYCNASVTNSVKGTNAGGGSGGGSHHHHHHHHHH
# T2: mouse BCMA with a His tag (ACROBiosystems, Catalog No.: BCA-M52H3) (mouse)
# T2 construct: Bought His-tagged recombinant protein
# T2 chain: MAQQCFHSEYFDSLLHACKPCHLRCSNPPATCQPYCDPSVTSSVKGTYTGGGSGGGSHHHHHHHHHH
# T3: BCMA on cells (293T cells transfected with BCMA; H929, MM.1S and U266 cell lines expressing BCMA) (human, UniProt Q02223 1-184)
# T3 construct: H929, MM.1S and U266 carry the native protein; also called B-cell Maturation Antigen; TNFRSF17
# T3 sequence: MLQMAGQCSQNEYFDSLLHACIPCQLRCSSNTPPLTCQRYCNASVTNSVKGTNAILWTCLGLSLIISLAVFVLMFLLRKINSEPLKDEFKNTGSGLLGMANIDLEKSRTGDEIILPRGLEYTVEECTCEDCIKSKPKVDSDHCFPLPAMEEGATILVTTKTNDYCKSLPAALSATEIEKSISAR
# B1: SCT-Aa13(m/m) (antibody, V domains shown)
# VH: QVQLQQSDAELVKPGASVKISCKVSGYTFTDYTIHWMKQRPEQGLEWIGYIYPRDGSTKYNEKFKGKATLTADKSSSTAYMQLNSLTSEDSAVYFCARWDYEGFDYWGQGTTLTVSS
# VL: DIVMTQSPATLSVTPGDRVSLSCRASQSISDYLHWYQQKSHESPRLLIKYASQSISGIPSRFSGSGSGSDFTLSINSVEPEDVGVYYCQNGHSFPPTFGSGTKLEIK
# notes: Full IgG format: mouse IgG1 heavy chain constant region, mouse kappa light chain constant region
# B2: SCT-Aa12(m/m) (antibody, V domains shown)
# VH: B1 VH with Y52F, R54S, E89D
# VL: B1 VL with H34N
# notes: as for B1
# B3: SCT-Aa02(h/h) (antibody, V domains shown)
# VH: EVKLLQSGGGLVQPGGSLKLSCAASGIDFSRYWMSWVRRAPGKGLEWIGEINPDSSTINSAPSLEDKFIISRDNAKNTLYLQMSKVRSEDTALYYCASLYYDYERDYAMDYWGQGASVTVSS
# VL: DIVMTQSQKFMSTSVGDRVSVTCKASQNVGTNVAWYQQKPGQSPKALIYSASYRFSGVPDRFTGSGSGTDFTLTISNVQSEDLAEYFCQQYHSYPFTFGGGTKLEIK
# notes: Full IgG format, chimeric: human IgG1 heavy chain constant region, human kappa light chain constant region
# B4: SCT-Aa02(m/m) (antibody, V domains shown)
# VH: B3 VH
# VL: B3 VL
# notes: as for B1
# B5: SCT-Aa04(m/m) (antibody, V domains shown)
# VH: B3 VH with S60Y, E65K, L99F, E104D, D106G, Y107A, A116T
# VL: B3 VL with F55Y, H92N, F96Y
# notes: as for B1
# B6: SCT-Aa03(h/h) (antibody, V domains shown)
# VH: EVKLLQSGGGLVQPGGSLKLSCAASGIDFSRYWMSWVRRAPGKGLEWIGEINPDSSTINYAPSLKDKFIISRDNAKNTLYLQMSKVRSEDTALYYCASFYYDYDHAMDYWGQGTSVTVSS
# VL: B3 VL with V19F, H92N, G100S
# notes: as for B3
# B7: SCT-Aa06(h/h) (antibody, V domains shown)
# VH: EVQLQQSGPELVKPGNSVKISCKASGYSFTGYFMNWVMQSHGKSLEWIGRINPYNGDTFYNQKFKGKATLTVDKSSSTAHMELRSLTSEDSAVYYCARLDYTNYNSYPMDYWGQGTSVTVSS
# VL: DIQMTHTTSSLSASLGDRVTISCSASQGISNYLNWYLQKPDGTVKLLIYYTSNLHSGVPSRFSGSGSGTDFSLTISNLQPEDIATYYCQQYSKFPWTFGGGTKLEIK
# notes: as for B3
# B8: SCT-Aa13(h/h) (antibody, V domains shown)
# VH: B1 VH
# VL: B1 VL
# notes: as for B3
# B9: SCT-Aa16(h/h) (antibody, V domains shown)
# VH: EVQLQQSGPELVKPGASVKMSCKGSGYTFTNYIMHWVKQKPGQGLEWIGYIIPYNDNTKYNEKFKGKATLTSDKSSSTAYMELSSLTSEDSAVYYCATYEYDVGLDYWGQGTTLTVSS
# VL: B7 VL with I2L, H6Q, S26R, S30V, L37Q, Y50N, N53S, F71Y, Q79E, F94L
# notes: as for B3
# B10: SCT-Aa17(h/h) (antibody, V domains shown)
# VH: EVQLQQSGPELVKPGASVKMSCKASGYTFTSYVMDWVKQKPGQGLEWIGYINPYNDGTKYNEKFKGKATLTSDKSSSTVYMELSSLTSEDSAVYHCARSDYDYGYAMDYWGQGTSVTVSS
# VL: DIQMTQSPASLSLSVGETVTITCRASENIYSNLAWYQQKQGNSPQLLVYSATHLADGVPSRFSGSGSGTQYSLKINSLQSEDFGCYYCQHFWGPPWTFGGGTKLEIK
# notes: as for B3
# B11: SCT-Aa18(h/h) (antibody, V domains shown)
# VH: EVQLQQSGPELVKPGASVKISCKASGYTFISYVMHWVKQKPGQGLEWIGYIIPYNDGTKYNEKFKGKATLTSDKSSSTAYMELSSLTSEDSAVYYCAKWGNWDEGTWFPYWGQGTLVTVSA
# VL: DVLMTQTPLSLPVSLGDQASFSCRSSQSIVHSDGNTYLEWYLQKPGQSPKLLIYKISNRFSGVPDRFSGSGSGTDFTLKISRVEAEDLGVYYCFQGSHVPWTFGGGTKLEIK
# notes: as for B3
# What was measured:
# [1] = biological target: T1, human BCMA with a His tag …; experiment: SPR, Biacore T200
# Method: The binding affinity of select anti-BCMA was measured on a surface plasmon resonance (SPR) instrument, Biacore T200™, against human BCMA by a method known in the art.
# In experiments performed essentially as described above, a subset of anti-human BCMA antibodies of the present disclosure bind human BCMA with a His tag (ACROBiosystems, Beijing, China, Catalog No.: BCA-H522y, SEQ ID NO:2) with affinity shown in Table 6.
# [2] = biological target: T2, mouse BCMA with a His tag …; experiment: ELISA, plate-coated mouse BCMA-His
# Method: (§1) The recombinantly expressed antibodies were used to assess binding activity to BCMA of different species origins by conventional ELISA according to the known art. Recombinant human BCMA, cyno BCMA, and mouse BCMA were coated onto ELISA plates to detect binding at serially diluted concentrations of the anti-BCMA antibody preparations.
# (§2) The ability for antibodies of the present disclosure to bind human BCMA was measured with an ELISA assay. For the BCMA binding assay, a 96-well plate (Nunc) is coated with human BCMA with a His tag (ACROBiosystems, Catalog No.: AC108P1-180611F2-Bulk, SEQ ID NO:2) at 0.2 μg/well overnight at 4° C. Wells are blocked for 2 h with blocking buffer (PBS containing 3% bovine serum albumin). Wells are washed three times with PBS containing 0.1% Tween-20. Anti-human BCMA antibodies of the present disclosure or control IgG (100 μL) is then added and incubated at room temperature for 1 h. After washing, the plate is incubated with 100 μL of goat anti-mouse IgG Fcγ Fragment Specific-HRP conjugate (Jackson ImmunoResearch) at room temperature for 1 h. The plates are washed and then incubated with 100 μL of 3,3′,5,5′-tetra-methylbenzidine. The absorbance at 450 nm is read on a microplate reader. The half maximal effective concentration (EC50) is calculated using GraphPad Prism 6 software.
# In experiments performed essentially as described above, anti-human BCMA antibodies of the present disclosure bind mouse BCMA with a His tag (ACROBiosystems, Beijing, China, Catalog No.: BCA-M52H3, SEQ ID NO:109) with an EC50 values shown in Table 5.
# [3] = biological target: T3, BCMA on cells (293T cells transfected …); experiment: flow cytometry, H929 cells
# Method: A cell line expressing BCMA, H929, was used to assess binding by anti-BCMA antibodies on the native protein on the cell surface by flow cytometry according to the known art. A subset of anti-human BCMA antibodies were assayed for binding to H929 and the fraction of cells bound the labeled antibody above background defined by control is shown in Table 8.
# [4] = biological target: T3, BCMA on cells (293T cells transfected …); experiment: flow cytometry, 293T cells transfected with BCMA, above parental 293T background
# [5] = biological target: T1, human BCMA with a His tag …; experiment: ELISA, plate-coated human BCMA-His
# Method: as §1, §2
# In experiments performed essentially as described above, anti-human BCMA antibodies of the present disclosure bind human BCMA with a His tag (ACROBiosystems, Beijing, China, Catalog No.: BCA-H522y, SEQ ID NO:2) with an EC50 values shown in Table 3.
# [6] = biological target: T4, cyno BCMA with a His tag (ACROBiosystems, Catalog No.: BCA-052H7) (cyno); experiment: ELISA, plate-coated cyno BCMA-His
# T4 construct: Bought His-tagged recombinant protein
# Method: as §1, §2
# In experiments performed essentially as described above, anti-human BCMA antibodies of the present disclosure bind cyno BCMA with a His tag (ACROBiosystems, Beijing, China, Catalog No.: BCA-052H7, SEQ ID NO:110) with an EC50 values shown in Table 4.
# [7] = biological target: T3, BCMA on cells (293T cells transfected …); experiment: flow cytometry, H929 cells; remark: listed apart in the source
# T4 sequence (chain, as listed by the source limits assumed): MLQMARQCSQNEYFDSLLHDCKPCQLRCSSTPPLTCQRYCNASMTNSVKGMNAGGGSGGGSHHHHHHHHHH
Binder,Kd [1] [nM],koff [1] [s⁻¹],kon [1] [M⁻¹ s⁻¹],EC50 [2] [µg/mL],Positive (%) [3] [%],Positive (%) [4] [%],EC50 [5] [µg/mL],EC50 [6] [µg/mL],Mean fluorescent intensity [7]
B1,43.8,0.0358,817000,0.529,99.9,84.4,0.00264,0.174,2560
B2,5.01,0.011,2.2e+06,0.0107,99.9,85.7,0.0017,9.74,3480
B3,1.22,0.000374,306000,–,99.2,81.9,0.00285,0.0433,1280
B4,0.388,0.000113,292000,0.00262,100,96.3,0.00286,0.0891,4560
B5,5.62,0.0126,2.25e+06,0.0343,99.9,88.9,0.00232,2.05,3790
B6,9.49,0.00284,299000,0.0108,98.2,75.1,0.00346,1.6,1070
B7,5.38,0.02,3.72e+06,0.0972,99.6,82.8,0.00278,0.0976,1260
B8,4.85,0.0157,3.23e+06,0.019,96.5,74.3,0.00268,0.131,756
B9,26.7,0.199,7.43e+06,1.08,96.1,68.1,0.00201,0.0778,853
B10,2.45,0.0132,5.39e+06,4.33,75,43,0.00356,2.17,232
B11,12.2,0.0506,4.15e+06,0.271,97,76.1,0.00268,0.0788,875

# Source: patent US20210332145A1 (SINGLE CELL TECHNOLOGY, published 2021)
